In PMC4370734:
“And” between values parts separate entries of the source, which are not always exact repeats. Equal entries are not always repeated.

How the values were obtained:
Assay in all cases: AUC; sedimentation velocity, 0.3 mg/mL, 20 mM Tris/HCl, 500 mM sodium chloride, 5 mM DTT, 0.4% CHAPS, pH 8.0, 42,000 rpm, 20°C; c(S) analysis with Sedfit; monomer, dimer, trimer and higher species
P42858 = test system: P42858
[1] = biological target: human full-length mutant Htt with 128Qs, C-terminally fused with a FLAG-His (FH) affinity tag (human) (UniProt P42858)
[2] = biological target: human full-length normal Htt with 17Qs, C-terminally fused with a FLAG-His affinity tag (human) (UniProt P42858)

human full-length mutant Htt with 128Qs, C-terminally fused with a FLAG-His (FH) affinity tag
fraction of aggregates (P42858): also of aggregates (23.6% versus 9.9%)

human full-length mutant Htt with 128Qs, C-terminally fused with a FLAG-His (FH) affinity tag, P42858 1-3142
fraction of dimer [1]: 20%
fraction of monomer [1]: 35.6%
fraction of trimer [1]: 17.3%
stoichiometry N [1]: 2 and 3

human full-length normal Htt with 17Qs, C-terminally fused with a FLAG-His affinity tag
fraction of aggregates (P42858): also of aggregates (23.6% versus 9.9%)

human full-length normal Htt with 17Qs, C-terminally fused with a FLAG-His affinity tag, P42858 1-3142
fraction of dimer [2]: 20%
fraction of monomer [2]: 52.1%
fraction of trimer [2]: 8.8%
stoichiometry N [2]: 2 and 3
